In paper PMC7873046, “Structure of the Complete Dimeric Human GDAP1 Core Domain Provides Insights into Ligand Binding and Clustering of Disease Mutations” (Frontiers in Molecular Biosciences, 2021):
Where a chain is given by its changes, count along the chain named.

Experiments:
GDAP1∆295-358 = target: T1, GDAP1∆295-358 (Homo sapiens, UniProt Q8TB36); experiment: isothermal titration calorimetry; type: binding
T1 construct: C-terminally truncated (residues 295-358 deleted), alpha-loop insertion kept; N-terminal tag cut with TEV; E. coli BL21(DE3); monomer/dimer equilibrium
T1 sequence (Q8TB36 1-294): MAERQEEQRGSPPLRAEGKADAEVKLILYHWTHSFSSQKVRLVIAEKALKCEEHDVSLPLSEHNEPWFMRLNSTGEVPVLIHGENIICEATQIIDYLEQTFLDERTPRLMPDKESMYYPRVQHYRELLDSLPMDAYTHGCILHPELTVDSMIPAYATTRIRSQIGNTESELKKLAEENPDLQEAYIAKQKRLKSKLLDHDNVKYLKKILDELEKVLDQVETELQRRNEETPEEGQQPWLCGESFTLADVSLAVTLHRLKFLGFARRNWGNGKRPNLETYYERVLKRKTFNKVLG
Description: isothermal titration calorimetry on GDAP1∆295-358

GDAP1∆319-358 = target: T2, GDAP1∆319-358 (Homo sapiens, UniProt Q8TB36); experiment: differential scanning fluorimetry (SYPRO Orange); type: binding; settings: pH 7.5, 300 mM NaCl, 2% DMSO; HA titrated up to 250 µM
T2 construct: C-terminally truncated (residues 319-358 deleted; hydrophobic and transmembrane region), alpha-loop insertion kept; N-terminal tag cut with TEV; E. coli BL21(DE3); monomer/dimer equilibrium
T2 sequence (Q8TB36 1-318): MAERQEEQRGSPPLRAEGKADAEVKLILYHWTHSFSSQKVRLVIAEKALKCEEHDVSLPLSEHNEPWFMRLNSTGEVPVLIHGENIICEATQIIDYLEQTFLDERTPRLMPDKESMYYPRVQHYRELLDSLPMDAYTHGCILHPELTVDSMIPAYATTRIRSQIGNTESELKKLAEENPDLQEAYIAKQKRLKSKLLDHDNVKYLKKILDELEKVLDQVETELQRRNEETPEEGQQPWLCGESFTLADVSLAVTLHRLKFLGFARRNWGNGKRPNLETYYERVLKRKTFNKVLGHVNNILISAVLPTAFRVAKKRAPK

[1] = target: the molecule itself; experiment: SEC-SAXS; 50 µL of protein at 8.5-10 mg/ml injected into BioSEC3-300 or Superdex 75 10/300 GL increase; 25 mM HEPES pH 7.5, 300 mM NaCl; +15 °C; GDAP1∆295-358 and GDAP1∆319-358 also with hexadecanedioic acid (HA), which gave a higher monomer fraction
[2] = target: the molecule itself; experiment: non-reducing SDS-PAGE; SEC eluates of purified proteins on a non-reducing gel (GDAP1L1 also on a reducing gel); shows the covalent (disulfide) dimer
[3] = target: the molecule itself; experiment: SEC-MALS; Superdex 75 10/300 GL increase in SEC buffer (25 mM HEPES pH 7.5, 300 mM NaCl); protein 1-10 mg/ml, 15-150 µg injected

For O=C(O)CCCCCCCCCCCCCCC(=O)O [hexadecanedioic acid], the Kd (GDAP1∆295-358) was 2 ± 0.8 µM and the dTm (GDAP1∆319-358) was ~ 3 °C.

B1: GDAP1∆295-358 (domain or fragment, human, UniProt Q8TB36 1-294, looked up)
chain: T1 sequence (Q8TB36 1-294)
notes: The constructs were put into pTH27 (N-terminal His6) and pDEST-Trx (N-terminal thioredoxin); also called ganglioside-induced differentiation-associated protein 1, C-terminally truncated; GDAP1 core domain; source: E. coli BL21 (DE3), purified (Ni-NTA, TEV cleavage, SEC); not shown: His6, N-terminal, cleaved
For B1, the “stoichiometry N” value [1] was 2.

B2: GDAP1∆303-358 Y29F (domain or fragment, human, UniProt Q8TB36 1-302, looked up)
chain: MAERQEEQRGSPPLRAEGKADAEVKLILFHWTHSFSSQKVRLVIAEKALKCEEHDVSLPLSEHNEPWFMRLNSTGEVPVLIHGENIICEATQIIDYLEQTFLDERTPRLMPDKESMYYPRVQHYRELLDSLPMDAYTHGCILHPELTVDSMIPAYATTRIRSQIGNTESELKKLAEENPDLQEAYIAKQKRLKSKLLDHDNVKYLKKILDELEKVLDQVETELQRRNEETPEEGQQPWLCGESFTLADVSLAVTLHRLKFLGFARRNWGNGKRPNLETYYERVLKRKTFNKVLGHVNNILIS
notes: Point mutant of m2, made by site-directed mutagenesis PCR; source: E. coli BL21 (DE3), purified (Ni-NTA, TEV cleavage, SEC); not shown: His6, N-terminal, cleaved
In the case of B2, the “stoichiometry N” value [2] is reported as 2.

B3: GDAP1∆303-358 (domain or fragment, human, UniProt Q8TB36 1-302, looked up)
chain: B2 chain with F29Y
notes: The constructs were put into pTH27 (N-terminal His6) and pDEST-Trx (N-terminal thioredoxin); Tag cleaved with TEV protease; also called complete human GDAP1 core domain; source: E. coli BL21 (DE3), purified (Ni-NTA, TEV cleavage, SEC); not shown: His6, N-terminal, cleaved
With B3 the “stoichiometry N” value [3] was 2.

B4: GDAP1∆319-358 (domain or fragment, human, UniProt Q8TB36 1-318, looked up)
chain: T2 sequence (Q8TB36 1-318)
notes: The constructs were put into pTH27 (N-terminal His6) and pDEST-Trx (N-terminal thioredoxin); Tag cleaved with TEV protease; also called ganglioside-induced differentiation-associated protein 1, C-terminally truncated; source: E. coli BL21 (DE3), purified (Ni-NTA, TEV cleavage, SEC); not shown: His6, N-terminal, cleaved
For B4, the “stoichiometry N” value [1] was 2.
